In patent publication US20200079833A1 (AstraZeneca / MedImmune, published 2020):
Starred links: 1 amine or outer side, 2 acyl side, 3 side chain; linkers in the order of their positions; H or OH if unused. Non-standard residues stand in square brackets, D forms with d. Groups on a side chain read outwards from the residue. Primed or numbered codes have the meaning given here. No end group written: not given here. *: point of attachment. γGlu = O=C(O)[C@H](CCC(=O)[*:2])N[*:1]; Stearoyl = CCCCCCCCCCCCCCCCCC(=O)*; Palmitoyl = CCCCCCCCCCCCCCCC(=O)*; αMeF = C[C@](N)(Cc1ccccc1)C(=O)O; αMeK = C[C@](N)(CCCCN)C(=O)O; αMeS = C[C@](N)(CO)C(=O)O; PEG2′ = not defined here; Aib = CC(C)(N)C(=O)O

T1: glucose-dependent insulinotropic peptide (gastric inhibitory polypeptide) receptor (human, UniProt P48546 22-466)
T1 sequence (looked up): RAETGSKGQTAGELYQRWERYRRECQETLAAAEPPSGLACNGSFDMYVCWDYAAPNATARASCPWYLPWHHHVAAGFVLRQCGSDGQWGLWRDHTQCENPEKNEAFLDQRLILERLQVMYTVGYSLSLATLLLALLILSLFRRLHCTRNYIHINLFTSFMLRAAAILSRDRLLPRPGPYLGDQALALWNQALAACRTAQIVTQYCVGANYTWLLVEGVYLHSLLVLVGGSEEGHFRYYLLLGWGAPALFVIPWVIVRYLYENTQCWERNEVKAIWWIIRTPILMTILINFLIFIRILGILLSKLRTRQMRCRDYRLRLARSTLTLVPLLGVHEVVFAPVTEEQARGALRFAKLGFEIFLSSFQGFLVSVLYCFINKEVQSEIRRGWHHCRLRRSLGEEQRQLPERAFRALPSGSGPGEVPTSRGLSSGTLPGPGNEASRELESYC

B1: SEQ ID NO 30 (peptide)
peptide: H[Aib]EGS[αMeF]TVDV[αMeS]S[αMeF]LEGEAA[αMeK]E[αMeF]IA[αMeF]VV[αMeK]GG-NH2
modifications: N-terminus assumed
SMILES: CC[C@H](C)[C@H](NC(=O)[C@](C)(Cc1ccccc1)NC(=O)[C@H](CCC(=O)O)NC(=O)[C@](C)(CCCCN)NC(=O)[C@H](C)NC(=O)[C@H](C)NC(=O)[C@H](CCC(=O)O)NC(=O)CNC(=O)[C@H](CCC(=O)O)NC(=O)[C@H](CC(C)C)NC(=O)[C@](C)(Cc1ccccc1)NC(=O)[C@H](CO)NC(=O)[C@](C)(CO)NC(=O)[C@@H](NC(=O)[C@H](CC(=O)O)NC(=O)[C@@H](NC(=O)[C@@H](NC(=O)[C@](C)(Cc1ccccc1)NC(=O)[C@H](CO)NC(=O)CNC(=O)[C@H](CCC(=O)O)NC(=O)C(C)(C)NC(=O)[C@@H](N)Cc1c[nH]cn1)[C@@H](C)O)C(C)C)C(C)C)C(=O)N[C@@H](C)C(=O)N[C@@](C)(Cc1ccccc1)C(=O)N[C@H](C(=O)N[C@H](C(=O)N[C@@](C)(CCCCN)C(=O)NCC(=O)NCC(N)=O)C(C)C)C(C)C
B2: SEQ ID NO 29 (peptide)
peptide: H[Aib]EGS[αMeF]TTDV[αMeS]S[αMeF]LEGEAA[αMeK]E[αMeF]IA[αMeF]VV[αMeK]GG-NH2
modifications: N-terminus assumed
SMILES: CC[C@H](C)[C@H](NC(=O)[C@](C)(Cc1ccccc1)NC(=O)[C@H](CCC(=O)O)NC(=O)[C@](C)(CCCCN)NC(=O)[C@H](C)NC(=O)[C@H](C)NC(=O)[C@H](CCC(=O)O)NC(=O)CNC(=O)[C@H](CCC(=O)O)NC(=O)[C@H](CC(C)C)NC(=O)[C@](C)(Cc1ccccc1)NC(=O)[C@H](CO)NC(=O)[C@](C)(CO)NC(=O)[C@@H](NC(=O)[C@H](CC(=O)O)NC(=O)[C@@H](NC(=O)[C@@H](NC(=O)[C@](C)(Cc1ccccc1)NC(=O)[C@H](CO)NC(=O)CNC(=O)[C@H](CCC(=O)O)NC(=O)C(C)(C)NC(=O)[C@@H](N)Cc1c[nH]cn1)[C@@H](C)O)[C@@H](C)O)C(C)C)C(=O)N[C@@H](C)C(=O)N[C@@](C)(Cc1ccccc1)C(=O)N[C@H](C(=O)N[C@H](C(=O)N[C@@](C)(CCCCN)C(=O)NCC(=O)NCC(N)=O)C(C)C)C(C)C
B3: SEQ ID NO 28 (peptide)
peptide: H[Aib]EGS[αMeF]TEDV[αMeS]S[αMeF]LEGEAA[αMeK]E[αMeF]IA[αMeF]VV[αMeK]GG-NH2
modifications: N-terminus assumed
SMILES: CC[C@H](C)[C@H](NC(=O)[C@](C)(Cc1ccccc1)NC(=O)[C@H](CCC(=O)O)NC(=O)[C@](C)(CCCCN)NC(=O)[C@H](C)NC(=O)[C@H](C)NC(=O)[C@H](CCC(=O)O)NC(=O)CNC(=O)[C@H](CCC(=O)O)NC(=O)[C@H](CC(C)C)NC(=O)[C@](C)(Cc1ccccc1)NC(=O)[C@H](CO)NC(=O)[C@](C)(CO)NC(=O)[C@@H](NC(=O)[C@H](CC(=O)O)NC(=O)[C@H](CCC(=O)O)NC(=O)[C@@H](NC(=O)[C@](C)(Cc1ccccc1)NC(=O)[C@H](CO)NC(=O)CNC(=O)[C@H](CCC(=O)O)NC(=O)C(C)(C)NC(=O)[C@@H](N)Cc1c[nH]cn1)[C@@H](C)O)C(C)C)C(=O)N[C@@H](C)C(=O)N[C@@](C)(Cc1ccccc1)C(=O)N[C@H](C(=O)N[C@H](C(=O)N[C@@](C)(CCCCN)C(=O)NCC(=O)NCC(N)=O)C(C)C)C(C)C
B4: SEQ ID NO 32 (peptide)
peptide: H[Aib]EGS[αMeF]TSDV[αMeS]S[αMeF]LEGEAA[αMeK]E[αMeF]IA[αMeF]VV[αMeK]GGK([γGlu-Palmitoyl])-NH2
modifications: N-terminus assumed
SMILES: CCCCCCCCCCCCCCCC(=O)N[C@@H](CCC(=O)NCCCC[C@H](NC(=O)CNC(=O)CNC(=O)[C@](C)(CCCCN)NC(=O)[C@@H](NC(=O)[C@@H](NC(=O)[C@](C)(Cc1ccccc1)NC(=O)[C@H](C)NC(=O)[C@@H](NC(=O)[C@](C)(Cc1ccccc1)NC(=O)[C@H](CCC(=O)O)NC(=O)[C@](C)(CCCCN)NC(=O)[C@H](C)NC(=O)[C@H](C)NC(=O)[C@H](CCC(=O)O)NC(=O)CNC(=O)[C@H](CCC(=O)O)NC(=O)[C@H](CC(C)C)NC(=O)[C@](C)(Cc1ccccc1)NC(=O)[C@H](CO)NC(=O)[C@](C)(CO)NC(=O)[C@@H](NC(=O)[C@H](CC(=O)O)NC(=O)[C@H](CO)NC(=O)[C@@H](NC(=O)[C@](C)(Cc1ccccc1)NC(=O)[C@H](CO)NC(=O)CNC(=O)[C@H](CCC(=O)O)NC(=O)C(C)(C)NC(=O)[C@@H](N)Cc1c[nH]cn1)[C@@H](C)O)C(C)C)[C@@H](C)CC)C(C)C)C(C)C)C(N)=O)C(=O)O
B5: SEQ ID NO 34 (peptide)
peptide: H[Aib]EGS[αMeF]TSDV[αMeS]S[αMeF]LEGEAAK([γGlu-Palmitoyl])E[αMeF]IA[αMeF]VV[αMeK]GG-NH2
modifications: N-terminus assumed
SMILES: CCCCCCCCCCCCCCCC(=O)N[C@@H](CCC(=O)NCCCC[C@H](NC(=O)[C@H](C)NC(=O)[C@H](C)NC(=O)[C@H](CCC(=O)O)NC(=O)CNC(=O)[C@H](CCC(=O)O)NC(=O)[C@H](CC(C)C)NC(=O)[C@](C)(Cc1ccccc1)NC(=O)[C@H](CO)NC(=O)[C@](C)(CO)NC(=O)[C@@H](NC(=O)[C@H](CC(=O)O)NC(=O)[C@H](CO)NC(=O)[C@@H](NC(=O)[C@](C)(Cc1ccccc1)NC(=O)[C@H](CO)NC(=O)CNC(=O)[C@H](CCC(=O)O)NC(=O)C(C)(C)NC(=O)[C@@H](N)Cc1c[nH]cn1)[C@@H](C)O)C(C)C)C(=O)N[C@@H](CCC(=O)O)C(=O)N[C@@](C)(Cc1ccccc1)C(=O)N[C@H](C(=O)N[C@@H](C)C(=O)N[C@@](C)(Cc1ccccc1)C(=O)N[C@H](C(=O)N[C@H](C(=O)N[C@@](C)(CCCCN)C(=O)NCC(=O)NCC(N)=O)C(C)C)C(C)C)[C@@H](C)CC)C(=O)O
B6: SEQ ID NO 33 (peptide)
peptide: H[Aib]EGS[αMeF]TSDV[αMeS]S[αMeF]LEGEAAK([PEG2′-PEG2′-γGlu-Stearoyl])E[αMeF]IA[αMeF]VV[αMeK]GG-NH2
B7: SEQ ID NO 35 (peptide)
peptide: H[Aib]EGS[αMeF]TDDV[αMeS]S[αMeF]LEGEAA[αMeK]E[αMeF]IA[αMeF]VV[αMeK]GGK([γGlu-Palmitoyl])-NH2
modifications: N-terminus assumed
SMILES: CCCCCCCCCCCCCCCC(=O)N[C@@H](CCC(=O)NCCCC[C@H](NC(=O)CNC(=O)CNC(=O)[C@](C)(CCCCN)NC(=O)[C@@H](NC(=O)[C@@H](NC(=O)[C@](C)(Cc1ccccc1)NC(=O)[C@H](C)NC(=O)[C@@H](NC(=O)[C@](C)(Cc1ccccc1)NC(=O)[C@H](CCC(=O)O)NC(=O)[C@](C)(CCCCN)NC(=O)[C@H](C)NC(=O)[C@H](C)NC(=O)[C@H](CCC(=O)O)NC(=O)CNC(=O)[C@H](CCC(=O)O)NC(=O)[C@H](CC(C)C)NC(=O)[C@](C)(Cc1ccccc1)NC(=O)[C@H](CO)NC(=O)[C@](C)(CO)NC(=O)[C@@H](NC(=O)[C@H](CC(=O)O)NC(=O)[C@H](CC(=O)O)NC(=O)[C@@H](NC(=O)[C@](C)(Cc1ccccc1)NC(=O)[C@H](CO)NC(=O)CNC(=O)[C@H](CCC(=O)O)NC(=O)C(C)(C)NC(=O)[C@@H](N)Cc1c[nH]cn1)[C@@H](C)O)C(C)C)[C@@H](C)CC)C(C)C)C(C)C)C(N)=O)C(=O)O

Assays:
Assay in all cases: cell-based or functional assay
[1] = target: glucagon receptor (human, UniProt P47871 26-477)
[2] = target: GLP-1 receptor (human, UniProt P43220 24-463)
[3] = target: T1, glucose-dependent insulinotropic …

Chain of glucagon receptor (P47871 26-477): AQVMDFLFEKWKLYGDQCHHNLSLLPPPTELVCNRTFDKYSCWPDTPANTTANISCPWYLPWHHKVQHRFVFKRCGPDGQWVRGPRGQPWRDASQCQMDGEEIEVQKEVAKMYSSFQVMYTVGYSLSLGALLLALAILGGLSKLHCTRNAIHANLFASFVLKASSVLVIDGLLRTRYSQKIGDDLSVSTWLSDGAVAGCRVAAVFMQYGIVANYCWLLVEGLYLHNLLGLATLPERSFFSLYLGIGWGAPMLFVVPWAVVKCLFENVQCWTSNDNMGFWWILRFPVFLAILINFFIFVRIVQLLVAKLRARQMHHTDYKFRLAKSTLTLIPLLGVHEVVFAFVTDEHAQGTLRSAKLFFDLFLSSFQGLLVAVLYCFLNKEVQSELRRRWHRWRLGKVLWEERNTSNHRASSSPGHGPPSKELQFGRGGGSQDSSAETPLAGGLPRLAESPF

Binder | Primary assay EC50 (cAMP), n1 [1] [nM] | Primary assay EC50 (cAMP), n2 [1] [nM] | Primary assay EC50 (cAMP), Mean pM GLP-1R [2] [pM] | Primary assay EC50 (cAMP), n1 [2] [nM] | Primary assay EC50 (cAMP), n2 [2] [nM] | Primary assay EC50 (cAMP), n1 [3] [nM] | Primary assay EC50 (cAMP), n2 [3] [nM]
B1 | 100 | 100 | 88600 | 80 | 97 | 100 | 100
B2 | 100 | 100 | 801 | 0.78 | 0.82 | 100 | 100
B3 | 100 | 100 | 4620 | 4.6 | 4.7 | 100 | 100
B4 | 90 | 90 | 27 | 0.036 | 0.018 | 90 | 90
B5 | 93 | 93 | 43 | 0.039 | 0.048 | 93 | 93
B6 | 25 | 25 | 100 | 0.064 | 0.14 | 25 | 25
B7 | 89 | 27 | 3260 | 4.9 | 1.7 | 89 | 27
